From paper PMC10167327
pKd: −log10 of the molar value.

Experiments:
[1] = molecular target: Vtc4* (Vtc4(1–487), SPX and TTM domains of Vtc4 without the transmembrane domain) (S. cerevisiae) (UniProt P47075); test: MST; as a1, MST buffer supplemented with 2.5 mM IP6
[2] = molecular target: Vtc4* (Vtc4(1–487), SPX and TTM domains of Vtc4 without the transmembrane domain) (S. cerevisiae) (UniProt P47075); test: MST; as a1, MST buffer supplemented with 2.5 mM 1,5-IP8
[3] = molecular target: Vtc4* (Vtc4(1–487), SPX and TTM domains of Vtc4 without the transmembrane domain) (S. cerevisiae) (UniProt P47075); test: MST; as a1, MST buffer supplemented with 2.5 mM natural 5-IP7
[4] = molecular target: Vtc4* (Vtc4(1–487), SPX and TTM domains of Vtc4 without the transmembrane domain) (S. cerevisiae) (UniProt P47075); test: MST; details: domain or fragment

Chain of Vtc4* (Vtc4(1–487), SPX and TTM domains of Vtc4 without the transmembrane domain) (S. cerevisiae) (P47075 1-487): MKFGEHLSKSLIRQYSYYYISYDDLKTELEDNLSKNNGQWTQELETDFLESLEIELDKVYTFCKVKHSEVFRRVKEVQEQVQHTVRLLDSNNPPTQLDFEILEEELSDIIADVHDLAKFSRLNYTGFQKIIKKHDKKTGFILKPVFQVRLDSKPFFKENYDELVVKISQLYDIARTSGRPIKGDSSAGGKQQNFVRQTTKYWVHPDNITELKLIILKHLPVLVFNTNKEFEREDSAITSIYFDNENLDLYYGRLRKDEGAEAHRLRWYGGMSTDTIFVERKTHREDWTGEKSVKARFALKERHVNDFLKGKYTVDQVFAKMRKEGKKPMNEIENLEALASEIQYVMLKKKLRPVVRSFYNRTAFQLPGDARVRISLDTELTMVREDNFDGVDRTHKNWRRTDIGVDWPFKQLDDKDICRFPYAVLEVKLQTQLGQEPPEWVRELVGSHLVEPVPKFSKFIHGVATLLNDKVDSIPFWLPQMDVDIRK
Chain of SPX2∆α1 (SPX2 with helix α1 truncated) (P43585 1-151): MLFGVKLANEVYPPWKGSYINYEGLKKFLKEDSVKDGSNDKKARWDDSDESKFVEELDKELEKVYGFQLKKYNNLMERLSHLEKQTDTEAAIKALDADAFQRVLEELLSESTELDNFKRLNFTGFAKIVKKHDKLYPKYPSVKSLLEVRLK

| fold decrease of affinity with 2.5 mM IP6 against no ligand [1] [fold] | fold decrease of affinity with 2.5 mM 1,5-IP8 against no ligand [2] [fold] | fold decrease of affinity with 2.5 mM 5-IP7 against no ligand [3] [fold] | pKd [4] | Substance |
| --- | --- | --- | --- | --- |
| > 20 | > 100000 | 85 |  | SPX2 (SPX domain of Vtc2, Vtc2(1–201)) (from UniProt P43585 1-201) (domain or fragment) |
|  |  |  | 3.00 | SPX2∆α1 (SPX2 with helix α1 truncated) |
